B1: KLHL14 (parent)
chain: YVIGGRNETGYLSSVECYNLETNE

Variants of: B1
Assay: protein stability index of a GFP-peptide fusion (GPS, HEK-293T) (PSI 1-6); higher = more stable
Details: c terminus: a fixed tail appended
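Also: lentivirally expressed fusions sorted by FACS into six bins by GFP to DsRed ratio, PSI derived from sequencing read proportions per bin multiplied by bin number.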

Protein stability index: each site, then its substitutions
G5: C 1.93 | E 3.15 | M 1.69 | S 2.31 | R 1.71 | W 2.92 | T 2.33 | I 2.24 | N 1.92 | F 2.41 | Y 1.72 | D 3.12 | H 1.74 | Q 2.1 | P 1.89 | A 1.71 | K 1.76 | L 2.82 | V 1.49
L12: S 2.59 | Y 1.8 | N 2.78 | G 2.99 | F 1.8 | K 2.16 | V 2.21 | P 2.64 | C 2.32 | T 2.57 | I 2.25 | A 2.62 | M 2.33 | W 2.47 | R 3.28 | D 3.42 | E 3.23 | Q 2.42 | H 1.92
S14: R 1.58 | A 1.7 | L 1.75 | M 2.3 | E 2.91 | K 1.35 | G 2.31 | Y 2.01 | Q 2.5 | W 2.88 | F 1.47 | D 2.38 | P 1.61 | C 2.4 | I 2.56 | H 1.8 | N 2.12 | T 1.99 | V 2.08
G4: N 1.89 | T 1.5 | Q 2.55 | W 2.32 | L 1.47 | D 1.89 | C 1.75 | K 2.34 | P 2.56 | H 2.4 | E 2.11 | M 2.31 | R 1.71 | F 1.31 | Y 2.42 | I 2.1 | S 2.46 | V 1.3 | A 1.77
C17: G 2.8 | H 2.08 | K 2.28 | Q 2.43 | R 2.39 | A 2.06 | I 2.5 | E 2.22 | T 2.56 | F 1.66 | L 2.56 | V 1.48 | N 2.44 | P 2.23 | W 2.17 | M 1.78 | D 2.82 | S 2.11 | Y 1.78
T9: Q 2 | R 2.76 | F 2.21 | H 1.6 | W 1.78 | N 1.83 | D 2.23 | V 2.07 | P 1.9 | I 1.49 | E 2.67 | L 1.69 | M 2.37 | A 1.9 | K 2.13 | S 1.93 | C 1.73 | Y 1.58 | G 1.69
Y11: D 3.65 | T 2.75 | P 3.71 | G 2.85 | F 1.83 | M 1.96 | V 2.52 | E 3.9 | H 2.45 | K 2.86 | A 2.71 | R 2.13 | I 2.1 | L 2.2 | N 2.83 | C 2.45 | S 2.42 | Q 3.1
Y18: K 1.96 | R 2.6 | H 2.32 | S 2.14 | M 2.4 | N 2.61 | A 2.76 | C 1.71 | L 2.11 | E 2.48 | P 2.45 | V 2.05 | F 2.1 | Q 2.34 | T 2.72 | W 2.21 | I 2.5 | D 2.77 | G 2.57
N19: F 3.39 | I 2.07 | Q 2 | S 1.83 | E 2.22 | P 2.1 | M 1.8 | D 2.41 | W 2.77 | G 1.7 | K 2.13 | R 1.49 | C 1.57 | V 1.66 | T 2.17 | L 2.08 | Y 1.76 | A 2.15 | H 2.04
G10: T 1.6 | C 2.58 | K 2.13 | L 2.62 | W 2.21 | F 2.81 | N 1.65 | H 1.45 | Q 2.29 | S 1.93 | I 1.25 | R 2.55 | M 1.68 | P 1.52 | V 1.98 | E 3.13 | A 1.88 | Y 1.6 | D 3.07
I3: P 2.65 | Q 2.06 | N 1.81 | S 1.61 | K 1.58 | R 1.49 | T 2.18 | M 2.1 | Y 1.3 | W 1.02 | L 1.84 | V 2.24
V15: G 2.05 | W 2.21 | C 1.66 | H 2.24 | S 2.5 | K 2.12 | P 2.46 | Y 1.5 | N 2.46 | M 1.84 | A 1.76 | D 2.95 | Q 2.49 | R 2.01 | T 1.74 | I 1.83 | F 1.52 | E 2.69 | L 1.9
N7: D 2.5 | F 2.29 | C 1.7 | M 1.66 | Q 1.91 | L 2.36 | P 1.84 | K 2.27 | Y 1.5 | S 2.63 | G 1.99 | W 1.63 | T 1.85 | I 1.74 | A 2.03 | V 1.71 | H 2.45 | E 2.59 | R 2.38
R6: P 2.51 | L 2.09 | T 2.52 | C 2.21 | I 1.67 | Y 1.69 | D 2.57 | G 1.92 | H 1.9 | A 2.93 | W 1.96 | N 2.2 | V 1.87 | Q 2.77 | K 2.05 | E 2.97 | F 1.5 | S 2.35 | M 1.69
L20: A 2.12 | T 2.36 | I 2.21 | P 1.83 | V 1.78 | H 2.34 | R 2.39 | W 1.55 | E 3.04 | Q 2.48 | M 1.96 | S 2.18 | C 2.09 | F 1.98 | Y 2.02 | N 2.79 | G 1.82 | K 2.09 | D 2.79
E8: I 1.81 | L 1.32 | R 1.95 | A 1.45 | V 1.78 | P 1.16 | Y 1.84 | T 1.78 | M 2.21 | Q 1.88 | D 1.56 | H 2.02 | F 1.99 | G 2.44 | K 1.89 | S 2.09 | W 2.08 | N 1.8
E21: A 2.66 | C 2.61
S13: Q 1.64 | E 2.61 | N 1.78 | V 1.89 | P 2.6 | K 1.68 | L 2.25 | I 1.84 | G 1.81 | D 2.76 | M 1.91 | H 1.58 | Y 1.79 | C 2.24 | A 1.65 | R 2.23 | T 1.79 | F 2.13
E16: V 3.5 | D 2.41 | T 1.96 | H 1.62 | N 2.33 | W 2.93 | P 2.45 | F 3.4 | Q 1.96 | R 2.16 | Y 1.84 | I 1.83 | S 2.18 | A 1.27 | G 1.54 | K 1.28 | M 1.45 | C 2.58 | L 2.09

Source: the supplement of paper PMC10567573
